From article PMC4376459, “CXCR3 antagonist VUF10085 binds to an intrahelical site distinct from that of the broad spectrum antagonist TAK-779” (British Journal of Pharmacology, 2015)
Substitutions are numbered along the chain they refer to.

T1: CXCR3 (Homo sapiens, UniProt P49682)
T1 sequence (P49682 1-368): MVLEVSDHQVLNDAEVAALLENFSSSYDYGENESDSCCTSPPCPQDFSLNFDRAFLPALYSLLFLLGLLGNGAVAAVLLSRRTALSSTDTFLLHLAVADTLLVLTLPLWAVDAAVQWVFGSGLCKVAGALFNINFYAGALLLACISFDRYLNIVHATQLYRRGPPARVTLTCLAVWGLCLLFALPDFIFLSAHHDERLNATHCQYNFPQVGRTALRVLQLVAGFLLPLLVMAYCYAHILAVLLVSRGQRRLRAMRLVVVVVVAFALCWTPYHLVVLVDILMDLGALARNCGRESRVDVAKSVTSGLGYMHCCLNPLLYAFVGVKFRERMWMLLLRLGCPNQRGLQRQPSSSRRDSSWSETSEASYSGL

T2: CXCR3 I279A (Homo sapiens, UniProt P49682, I279A)
T2 construct: expressed in transfected cells; host or cells: murine pre-B cell line L1.2, transient transfection
T2 sequence (P49682 1-368 I279A): T1 sequence (P49682 1-368) with I279A

T3: CXCL11 (Homo sapiens, UniProt O14625)
T3 chain: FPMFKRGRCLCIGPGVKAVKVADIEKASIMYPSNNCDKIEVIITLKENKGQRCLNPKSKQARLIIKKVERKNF

B1: CXCR3 (protein)
chain: T1 sequence (P49682 1-368) with Y205A
B2: CXCR3 (protein)
chain: T1 sequence (P49682 1-368) with V275A
B3: CXCR3 (protein)
chain: T1 sequence (P49682 1-368) with F131A
B4: CXCR3 (protein)
chain: T1 sequence (P49682 1-368)
B5: CXCR3 (protein)
chain: T1 sequence (P49682 1-368) with Y60A
B6: CXCR3 (protein)
chain: T1 sequence (P49682 1-368) with H202A

Columns and labels:
CXCR3 = target: T1, CXCR3; test: Activity at CXCR3 (data not shown)
CXCR3 I279A = target: T2, CXCR3 I279A; test: Whole-cell 125I-CXCL11 binding assay, L1.2 transfectants; conditions: I279A versus WT
CXCL11 = target: T3, CXCL11; test: homologous competition binding with 125I-CXCL11 on L1.2 transfectants

Row | Molecule | Kd (CXCL11) [nM] | other results
1 | CCCCOCCOc1ccc(-c2ccc3c(c2)/C=C(/C(=O)Nc2ccc([S@@+]([O-])Cc4cncn4CCC)cc2)CCCN3CC(C)C)cc1 [TAK-652] | – | activity at CXCR3 (CXCR3): devoid of activity
2 | CCOc1ccc(-n2c(C(C)N(Cc3cccnc3)C(=O)Cc3ccc(OC(F)(F)F)cc3)nc3ncccc3c2=O)cc1 (stereo not drawn) [VUF 10085, N-1R-[3-(4-ethoxy-phenyl)-4-oxo-3,4-dihydro-pyrido[2,3-d]pyrimidin-2-yl]-ethyl-N-pyridin-3-ylmethyl-2-(4-trifluoromethoxy-phenyl)-acetamide] | – | decrease in potency, ligand binding (CXCR3 I279A): twofold
3 | B1 | 10.4 | –
4 | B2 | 7.4 | –
5 | B3 | 1.1 | –
6 | B4 | 7.7 | –
7 | B5 | 1.8 | –
8 | B6 | 2.9 | –
